# Earlier results, collected in US20190390191A1, “CONSTRUCTING ENZYME-BASED SENSORS” (PharmaSeq, Inc., priority 2018, published 2019).
# What was measured:
# [1] = for T. aquaticus; Yeh et al.
# [2] = E. coli enzyme; Boulanger et al.
Substance,Km [1] [µM],Tm [2] [°C]
Alkaline phosphatase,840,
Alkaline phosphatase of E. coli: zinc-containing dimeric enzyme encoded by the phoA gene of E. coli,,97
